Measured values: article PMC9156947, “Identification of STAU1 as a regulator of HBV replication by TurboID-based proximity labeling” (iScience, 2022)

T1: C10-STAU1 (UniProt O95793 1-577)
T1 construct: also called wild type STAU1; source: HepG2, transfected, in cells; not shown: C10 tag (tripartite NanoLuc), N-terminal, kept
T1 sequence (looked up): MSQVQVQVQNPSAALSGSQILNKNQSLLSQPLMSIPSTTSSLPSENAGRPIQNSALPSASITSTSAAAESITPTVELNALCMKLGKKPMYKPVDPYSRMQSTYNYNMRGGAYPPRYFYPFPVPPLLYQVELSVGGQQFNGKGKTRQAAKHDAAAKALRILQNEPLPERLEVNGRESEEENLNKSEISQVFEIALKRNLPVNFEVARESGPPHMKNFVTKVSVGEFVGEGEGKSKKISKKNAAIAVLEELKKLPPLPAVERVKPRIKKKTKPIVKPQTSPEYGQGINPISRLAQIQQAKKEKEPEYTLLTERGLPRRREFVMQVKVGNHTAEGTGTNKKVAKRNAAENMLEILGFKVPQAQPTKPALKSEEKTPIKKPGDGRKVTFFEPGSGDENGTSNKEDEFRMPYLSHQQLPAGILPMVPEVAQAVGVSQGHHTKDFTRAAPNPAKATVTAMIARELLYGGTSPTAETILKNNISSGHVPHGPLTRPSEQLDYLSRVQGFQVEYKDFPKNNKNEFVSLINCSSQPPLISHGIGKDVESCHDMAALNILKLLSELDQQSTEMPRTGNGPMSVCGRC

B1: N8-HBx (natural protein)
chain: MAARLCCQLDPARDVLCLRPVGAESRGRPFSGSLGTLSSPSPSAVPTDHGAHLSLRGLPVCAFSSAGPCALRFTSARRMETTVNAHQILPKVLHKRTLGLSAMSTTDLEAYFKDCLFKDWEELGEEIRLKVFVLGGCRHKLVCAPAPCNFFTSA
notes: also called X protein; wild type HBx; source: HepG2, transfected, in cells; not shown: N8 tag (tripartite NanoLuc), N-terminal, kept
B2: N8-TAF10 (natural protein)
chain: not shown
notes: source: transfected cells (tripartite NanoLuc system), in cells

Assays:
[1] = biological target: T1, C10-STAU1; test: split reporter (BiFC, NanoBiT); tripartite Nanoluc luciferase: C10-tagged and N8-tagged proteins co-transfected with a plasmid expressing Nano1-7 into HepG2 cells; luciferase activity measured 48 h post-transfection; details: partners not purified
[2] = biological target: T2, C10-DDB1 (UniProt Q16531 1-1140); test: as above; details: partners not purified
T2 construct: also called wild type DDB1; source: HepG2, transfected, in cells; not shown: C10 tag (tripartite NanoLuc), N-terminal, kept
T2 sequence (Q16531 whole entry): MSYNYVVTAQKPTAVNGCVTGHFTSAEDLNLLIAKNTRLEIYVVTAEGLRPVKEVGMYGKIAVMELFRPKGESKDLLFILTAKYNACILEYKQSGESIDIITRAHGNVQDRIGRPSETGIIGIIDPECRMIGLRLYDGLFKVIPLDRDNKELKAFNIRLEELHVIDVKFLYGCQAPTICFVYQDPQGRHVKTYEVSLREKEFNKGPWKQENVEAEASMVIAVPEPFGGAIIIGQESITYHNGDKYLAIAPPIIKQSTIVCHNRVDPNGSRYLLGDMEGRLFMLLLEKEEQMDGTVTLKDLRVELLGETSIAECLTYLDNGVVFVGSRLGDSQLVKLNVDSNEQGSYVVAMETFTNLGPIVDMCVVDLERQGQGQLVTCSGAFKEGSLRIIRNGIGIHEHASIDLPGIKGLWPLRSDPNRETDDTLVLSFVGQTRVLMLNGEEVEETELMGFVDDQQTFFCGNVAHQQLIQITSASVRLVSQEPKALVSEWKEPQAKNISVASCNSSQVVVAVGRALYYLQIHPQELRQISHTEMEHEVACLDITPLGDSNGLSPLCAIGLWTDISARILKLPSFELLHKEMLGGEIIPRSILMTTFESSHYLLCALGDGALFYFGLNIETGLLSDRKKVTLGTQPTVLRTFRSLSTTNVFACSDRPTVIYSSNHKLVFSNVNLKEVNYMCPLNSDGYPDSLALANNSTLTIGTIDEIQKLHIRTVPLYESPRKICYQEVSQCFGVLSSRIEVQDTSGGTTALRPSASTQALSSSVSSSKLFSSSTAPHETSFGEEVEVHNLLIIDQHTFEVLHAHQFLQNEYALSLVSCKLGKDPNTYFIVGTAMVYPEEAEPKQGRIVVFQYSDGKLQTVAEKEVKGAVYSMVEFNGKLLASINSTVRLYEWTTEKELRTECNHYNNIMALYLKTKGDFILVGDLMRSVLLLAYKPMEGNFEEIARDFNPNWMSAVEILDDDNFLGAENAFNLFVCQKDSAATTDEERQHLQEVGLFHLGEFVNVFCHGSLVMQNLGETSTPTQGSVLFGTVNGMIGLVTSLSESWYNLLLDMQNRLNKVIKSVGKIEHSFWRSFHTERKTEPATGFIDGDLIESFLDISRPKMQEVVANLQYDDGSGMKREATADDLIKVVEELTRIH

Row | Binder | fold luminescence over the controls [1] [fold] | fold luminescence over the controls [2] [fold] | fold luminescence over the control [1] [fold]
1 | B1 | 28 | ~200 | –
2 | B2 | – | – | > 20
